Test results as given in patent US20210060169A1.
Residue numbers refer to the chain shown, from its start. One block for each binder: values may come before it.

What was measured:
human IL-2Rαβγ (human) = human IL-2Rαβγ (human) (UniProt P01589); assay: cell-based or functional assay
human IL-2Rβγ (human) = human IL-2Rβγ (human) (UniProt P14784); assay: cell-based or functional assay
human IL-2Rβγ (human), sequence (P14784 27-551, chain 1 of 2): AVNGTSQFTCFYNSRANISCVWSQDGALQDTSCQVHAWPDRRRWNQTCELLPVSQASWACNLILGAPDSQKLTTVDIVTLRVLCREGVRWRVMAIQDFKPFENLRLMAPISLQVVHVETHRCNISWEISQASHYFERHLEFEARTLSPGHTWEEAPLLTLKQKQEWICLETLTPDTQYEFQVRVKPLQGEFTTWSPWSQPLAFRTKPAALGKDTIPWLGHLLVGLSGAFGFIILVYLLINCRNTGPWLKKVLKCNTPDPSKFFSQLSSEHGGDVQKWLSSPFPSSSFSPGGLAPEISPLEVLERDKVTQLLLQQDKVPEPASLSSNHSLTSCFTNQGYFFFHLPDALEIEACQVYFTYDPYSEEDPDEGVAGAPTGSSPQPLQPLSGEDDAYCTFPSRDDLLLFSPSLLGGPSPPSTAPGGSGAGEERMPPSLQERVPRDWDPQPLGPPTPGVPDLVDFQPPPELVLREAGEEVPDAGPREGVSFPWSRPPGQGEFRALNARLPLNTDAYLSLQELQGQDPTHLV
human IL-2Rβγ (human), sequence (P31785 23-369, chain 2 of 2, further chain): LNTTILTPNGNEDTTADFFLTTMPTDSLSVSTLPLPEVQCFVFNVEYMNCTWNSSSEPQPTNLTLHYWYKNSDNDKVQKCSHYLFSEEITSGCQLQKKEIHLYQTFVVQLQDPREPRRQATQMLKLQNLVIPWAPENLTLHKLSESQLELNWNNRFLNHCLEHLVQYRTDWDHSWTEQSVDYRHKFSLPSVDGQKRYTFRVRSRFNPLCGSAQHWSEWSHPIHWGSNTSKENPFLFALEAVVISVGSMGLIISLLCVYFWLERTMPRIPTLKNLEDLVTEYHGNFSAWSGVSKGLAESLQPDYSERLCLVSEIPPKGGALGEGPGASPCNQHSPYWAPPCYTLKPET

human IL-2Rαβγ (human), sequence (P01589 22-272, chain 1 of 3): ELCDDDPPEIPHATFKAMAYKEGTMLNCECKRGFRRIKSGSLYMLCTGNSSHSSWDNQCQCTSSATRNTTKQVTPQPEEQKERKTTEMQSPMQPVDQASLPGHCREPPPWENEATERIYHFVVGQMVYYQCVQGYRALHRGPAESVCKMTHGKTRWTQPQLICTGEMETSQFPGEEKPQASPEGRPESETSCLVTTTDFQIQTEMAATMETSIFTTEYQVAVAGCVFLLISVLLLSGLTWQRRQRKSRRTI
human IL-2Rαβγ (human), sequence (P14784 27-551, chain 2 of 3, further chain): as the sequence (P14784 27-551, chain 1 of 2) above
human IL-2Rαβγ (human), sequence (P31785 23-369, chain 3 of 3, further chain): as the sequence (P31785 23-369, chain 2 of 2, further chain) above

Standardized EC50 ratio value (human IL-2Rαβγ (human)): > 30 | Treg proliferation rate at 650 to 6500 pmol/L (human IL-2Rαβγ (human)): > 80%
B1: 8His-S4(oAzZK)-Li30/F78(oAzZK)-Li30 (ligand)
chain: MHHHHHHHHAPTKSSTKKTQLQLEHLLLDLQMILNGINNYKNPKLTRMLTFKFYMPKKATELKHLQCLEEELKPLEEVLNLAQSKNKHLRPRDLISNINVIVLELKGSETTFMCEYADETATIVEFLNRWITFSQSIISTLT

Standardized EC50 ratio value (human IL-2Rαβγ (human)): > 30
B2: 8His-S4(oAzZK)-Y50/I129(oAzZK)-Y50 (ligand)
chain: B1 chain with K87F, I138K

Standardized EC50 ratio value (human IL-2Rαβγ (human)): > 30 | Treg proliferation rate at 650 to 6500 pmol/L (human IL-2Rαβγ (human)): > 80% | NK cell proliferation rate at 65 nmol/L (proliferation medium) (human IL-2Rβγ (human)): < 20%
B3: 8His-S4(oAzZK)-Li30/I129(oAzZK)-Li30 (ligand)
chain: B1 chain with K87F, I138K
